Experimental data: doi:10.1101/2022.02.05.479199 (bioRxiv, 2022)

Target: Replication protein A (Saccharomyces cerevisiae RPA) (S. cerevisiae, UniProt P22336;P26754;P26755)
Assay: AUC

Replication protein A (Saccharomyces cerevisiae RPA), sequence (P22336 whole entry, chain 1 of 3): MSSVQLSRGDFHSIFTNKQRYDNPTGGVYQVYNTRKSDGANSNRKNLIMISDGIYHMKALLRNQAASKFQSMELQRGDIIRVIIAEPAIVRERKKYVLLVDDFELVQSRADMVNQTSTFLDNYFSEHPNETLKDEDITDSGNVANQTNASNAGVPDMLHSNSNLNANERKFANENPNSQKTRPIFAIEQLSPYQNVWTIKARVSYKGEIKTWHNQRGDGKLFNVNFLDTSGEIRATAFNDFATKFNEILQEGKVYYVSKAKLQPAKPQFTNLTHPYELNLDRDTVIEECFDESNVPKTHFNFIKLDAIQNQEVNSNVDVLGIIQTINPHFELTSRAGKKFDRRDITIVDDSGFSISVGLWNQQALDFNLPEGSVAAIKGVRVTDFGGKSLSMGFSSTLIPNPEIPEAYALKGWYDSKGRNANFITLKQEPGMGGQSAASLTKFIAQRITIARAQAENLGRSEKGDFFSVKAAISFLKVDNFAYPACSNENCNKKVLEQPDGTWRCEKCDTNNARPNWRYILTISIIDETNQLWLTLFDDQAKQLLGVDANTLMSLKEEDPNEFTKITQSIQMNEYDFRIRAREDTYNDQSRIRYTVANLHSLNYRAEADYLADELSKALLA
Replication protein A (Saccharomyces cerevisiae RPA), sequence (P26754 whole entry, chain 2 of 3): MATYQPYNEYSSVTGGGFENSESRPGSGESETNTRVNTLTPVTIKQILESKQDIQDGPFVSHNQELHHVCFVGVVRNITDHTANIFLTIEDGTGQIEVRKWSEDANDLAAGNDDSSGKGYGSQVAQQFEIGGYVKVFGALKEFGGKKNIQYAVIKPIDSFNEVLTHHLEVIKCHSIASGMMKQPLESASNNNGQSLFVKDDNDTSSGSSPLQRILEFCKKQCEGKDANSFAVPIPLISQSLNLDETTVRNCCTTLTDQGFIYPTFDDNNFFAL
Replication protein A (Saccharomyces cerevisiae RPA), sequence (P26755 whole entry, chain 3 of 3): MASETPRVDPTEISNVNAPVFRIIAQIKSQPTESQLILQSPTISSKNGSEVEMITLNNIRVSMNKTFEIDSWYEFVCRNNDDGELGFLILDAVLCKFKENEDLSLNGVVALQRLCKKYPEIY

binding result: binds
B1: Rtt105^Cy5 (natural protein)
chain: MYSNHNLNSDDCSFDWNEEKAAELQRTGVSFDRSLTPQSLRTSTRRLSEENKQQSGTMHIDTSPSVVSDIISSRRDRSQDFFGPHSSSPIAPSERQRADQRSRLESMRLTRRRDKMTKVRGGLEKMEEMIMQGEHLREMQRLKQEAQKNALPSDMAEYMEWQNNEDLEDDELLAFIEKQETYKNELEHFLNNANKNVYENNSYPNSHT
modifications: Cy5 (maleimide) on Cys-12
